In patent US20030166850A1 (Pfizer, published 2003):

B1: evectin clone discovered in the yeast two-hybrid screen (amino acids 101-190) (other)
chain: KTALLEANSTPVRVYSPYQDYYEVVPPNAHEATYVRSYYGPPYAGPGVTHVIVREDPCYSAGAPLAMGMLAGAATGAALGSLMWSPCWF
notes: Prey clone from the pretransformed human fetal brain library (Clontech); also called latter half of the evectin protein
B2: EVT ΔC54 (C terminal deletion mutant of evectin) (other)
chain: MALVRGGWLWRQSSILRRWKRNWFALWLDGTLGYYHDETAQDEEDRVLIHFNVRDIKIGPECHDVQPPEGRSRDGLLTVNLREGGRLHLCAETKDDALAWKTALLEANSTPVRVYSPYQDYYEVVPPNAHEATYVR

Assays:
[1] = target: T1, proline rich domain of RGS9-2, amino acids 460-672 of human RGS9 (bait, plasmid pAS1-RGS9CT) (human, UniProt O75916 463-674); assay: yeast two-hybrid screen of a human fetal brain library
T1 sequence: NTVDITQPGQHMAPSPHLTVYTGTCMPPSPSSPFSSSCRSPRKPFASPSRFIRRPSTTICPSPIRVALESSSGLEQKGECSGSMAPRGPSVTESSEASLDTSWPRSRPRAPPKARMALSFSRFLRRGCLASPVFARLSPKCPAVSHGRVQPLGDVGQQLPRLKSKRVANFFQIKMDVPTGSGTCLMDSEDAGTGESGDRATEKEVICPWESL
Excerpt: (§1) To identify interactors of the proline rich domain of RGS9, amino acids 460-672 of human RGS9 (FIG. 1A), was used as “bait” to screen a pretransformed human fetal brain library (Clontech). The RGS9-2 cDNA used was cloned by PCR from a human brain cDNA library using the primers 5′ primer: […], 3′ primer: […]. The DNA encoding amino acids 460-672 of RGS9-2, was amplified by PCR using the primer sequences 5′ […] and 3′ […] and ligated into the NdeI and BamH 1 sites of pAS1 (Clontech). The pAS1-RGS9CT plasmid was used to transform the yeast strain PJ69-2A (Clontech) using lithium acetate. The library was screened using a yeast mating protocol by incubating the library (MATα) with the bait strain ([…]) overnight at 30° C. according to the manufacturer's protocols. The mating mixture was plated on SD/-His/-Leu/-Trp and incubated at 30° C. until colonies appeared. Colonies were picked and miniprep DNA prepared. The insert in the library plasmid was amplified using the LD-Insert Screening amplimer set of primers (Clontech) and the amplicon sequenced on an ABI 3700 capillary sequencer. The sequences obtained were used as queries against the GENBANK database using BLAST. The 6 most common hits were selected for further study and were replated on SD/-His/-Leu/-Trp containing 0-40 mM […]. […]

[2] = target: T1, proline rich domain of RGS9-2, amino …; assay: yeast two-hybrid assay
Excerpt: as §1

| Binder | binding result [1] | binding result [2] |
| --- | --- | --- |
| B1 | binds |  |
| B2 |  | binds |
